Numbered stars: 1 amine (or outer) side, 2 acyl side, 3 side chain; on linkers, the order of the positions; unused ones are H or OH. Bridge positions count the residues as written; N and C are the ends. Square brackets hold non-standard residues; d marks the D form. Side chains are listed from the residue outwards. Ends that are not written are not given here. * marks the point of attachment. C18 diacid = O=C(O)CCCCCCCCCCCCCCCCC(=O)*; γGlu = O=C(O)[C@H](CCC(=O)[*:2])N[*:1]; αMeF = C[C@](N)(Cc1ccccc1)C(=O)O; Dab = NCC[C@H](N)C(=O)O; Aib = CC(C)(N)C(=O)O

Common to all, as to test: cell-based or functional assay
Assay [1] concerns the target T1, rat amylin receptor (calcitonin receptor co-expressed with receptor activity modifying protein, RAMP3) (rat, UniProt P32214 25-516; Q9JJ73 23-147).
T1 sequence (looked up) 1: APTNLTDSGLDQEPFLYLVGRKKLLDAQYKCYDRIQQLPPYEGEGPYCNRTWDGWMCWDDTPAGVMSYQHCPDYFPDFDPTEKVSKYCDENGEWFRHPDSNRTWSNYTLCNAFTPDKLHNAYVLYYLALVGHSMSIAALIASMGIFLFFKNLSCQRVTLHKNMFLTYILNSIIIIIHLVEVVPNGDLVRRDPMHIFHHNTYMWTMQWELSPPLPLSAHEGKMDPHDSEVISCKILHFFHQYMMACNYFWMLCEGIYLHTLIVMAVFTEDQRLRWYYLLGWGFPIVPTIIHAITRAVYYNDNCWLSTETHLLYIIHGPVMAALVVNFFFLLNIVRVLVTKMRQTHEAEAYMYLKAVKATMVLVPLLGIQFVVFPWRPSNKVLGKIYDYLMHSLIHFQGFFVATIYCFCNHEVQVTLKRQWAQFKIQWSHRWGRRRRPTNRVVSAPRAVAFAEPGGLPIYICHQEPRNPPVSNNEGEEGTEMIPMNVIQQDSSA
T1 sequence (looked up) 2: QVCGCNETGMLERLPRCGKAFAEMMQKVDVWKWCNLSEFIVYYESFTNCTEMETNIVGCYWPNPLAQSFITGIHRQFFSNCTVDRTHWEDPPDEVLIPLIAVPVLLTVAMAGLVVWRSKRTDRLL

A further assay addresses T2, rat calcitonin receptor (rat, UniProt P32214 25-516).
T2 sequence (looked up): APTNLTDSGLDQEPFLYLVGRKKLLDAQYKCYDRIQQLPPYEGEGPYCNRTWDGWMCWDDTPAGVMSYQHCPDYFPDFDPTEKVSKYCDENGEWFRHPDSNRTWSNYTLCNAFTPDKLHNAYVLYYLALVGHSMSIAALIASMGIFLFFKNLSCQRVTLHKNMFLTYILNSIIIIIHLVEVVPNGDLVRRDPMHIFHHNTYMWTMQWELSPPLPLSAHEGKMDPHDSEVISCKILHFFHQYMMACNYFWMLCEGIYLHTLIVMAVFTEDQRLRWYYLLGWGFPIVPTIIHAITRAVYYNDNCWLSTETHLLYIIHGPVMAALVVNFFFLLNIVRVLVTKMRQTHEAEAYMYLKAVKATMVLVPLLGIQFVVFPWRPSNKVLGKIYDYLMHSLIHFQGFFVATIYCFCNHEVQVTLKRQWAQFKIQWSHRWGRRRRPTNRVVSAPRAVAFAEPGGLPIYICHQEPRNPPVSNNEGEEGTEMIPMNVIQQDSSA

Assay [2] concerns the target T3, human calcitonin receptor (human, UniProt P30988 25-474).
T3 sequence (looked up): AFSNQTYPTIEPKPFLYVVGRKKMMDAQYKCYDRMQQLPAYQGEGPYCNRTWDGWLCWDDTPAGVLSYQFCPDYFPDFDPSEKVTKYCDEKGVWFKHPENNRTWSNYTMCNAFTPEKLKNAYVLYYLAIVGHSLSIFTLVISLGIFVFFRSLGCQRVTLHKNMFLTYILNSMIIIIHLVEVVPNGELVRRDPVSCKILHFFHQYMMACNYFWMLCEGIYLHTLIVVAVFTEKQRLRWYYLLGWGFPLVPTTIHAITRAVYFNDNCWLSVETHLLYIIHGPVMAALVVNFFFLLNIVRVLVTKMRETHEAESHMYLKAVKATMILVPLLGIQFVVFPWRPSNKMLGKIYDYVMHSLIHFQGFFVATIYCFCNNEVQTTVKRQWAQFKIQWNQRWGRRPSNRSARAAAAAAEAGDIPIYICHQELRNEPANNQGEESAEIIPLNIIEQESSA

For assay [3], the target named is T4, human amylin receptor (calcitonin receptor co-expressed with receptor activity modifying protein, RAMP3) (human, UniProt P30988 25-474; O60896 24-148).
T4 sequence (looked up) 1: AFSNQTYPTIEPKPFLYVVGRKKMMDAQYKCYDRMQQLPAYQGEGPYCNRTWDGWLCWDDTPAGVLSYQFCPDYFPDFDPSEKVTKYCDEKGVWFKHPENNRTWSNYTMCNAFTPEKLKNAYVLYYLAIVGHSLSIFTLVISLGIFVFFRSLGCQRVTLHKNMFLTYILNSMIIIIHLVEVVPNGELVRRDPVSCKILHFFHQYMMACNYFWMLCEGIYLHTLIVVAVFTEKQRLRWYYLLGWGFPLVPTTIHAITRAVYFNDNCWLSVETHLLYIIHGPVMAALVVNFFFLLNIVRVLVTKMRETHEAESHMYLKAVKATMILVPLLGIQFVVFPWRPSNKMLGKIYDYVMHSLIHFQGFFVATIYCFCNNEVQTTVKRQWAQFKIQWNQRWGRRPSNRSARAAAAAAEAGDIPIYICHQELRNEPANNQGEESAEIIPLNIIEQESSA
T4 sequence (looked up) 2: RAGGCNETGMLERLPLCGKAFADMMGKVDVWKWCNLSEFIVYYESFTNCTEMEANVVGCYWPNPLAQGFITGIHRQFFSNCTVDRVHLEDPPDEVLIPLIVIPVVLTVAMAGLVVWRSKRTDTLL

B1: Peptide 9 (SEQ ID NO: 9) (peptide)
peptide: K([γGlu-γGlu-C18 diacid])CNTATCATQRLANFLVHSS[Aib]NFPAILSPTNVGSNTY-NH2
modifications: disulfide 2-7; N-terminus assumed
SMILES: CC[C@H](C)[C@H](NC(=O)[C@H](C)NC(=O)[C@@H]1CCCN1C(=O)[C@H](Cc1ccccc1)NC(=O)[C@H](CC(N)=O)NC(=O)C(C)(C)NC(=O)[C@H](CO)NC(=O)[C@H](CO)NC(=O)[C@H](Cc1c[nH]cn1)NC(=O)[C@@H](NC(=O)[C@H](CC(C)C)NC(=O)[C@H](Cc1ccccc1)NC(=O)[C@H](CC(N)=O)NC(=O)[C@H](C)NC(=O)[C@H](CC(C)C)NC(=O)[C@H](CCCNC(=N)N)NC(=O)[C@H](CCC(N)=O)NC(=O)[C@@H](NC(=O)[C@H](C)NC(=O)[C@@H]1CSSC[C@H](NC(=O)[C@@H](N)CCCCNC(=O)CC[C@H](NC(=O)CC[C@H](NC(=O)CCCCCCCCCCCCCCCCC(=O)O)C(=O)O)C(=O)O)C(=O)N[C@@H](CC(N)=O)C(=O)N[C@@H]([C@@H](C)O)C(=O)N[C@@H](C)C(=O)N[C@@H]([C@@H](C)O)C(=O)N1)[C@@H](C)O)C(C)C)C(=O)N[C@@H](CC(C)C)C(=O)N[C@@H](CO)C(=O)N1CCC[C@H]1C(=O)N[C@H](C(=O)N[C@@H](CC(N)=O)C(=O)N[C@H](C(=O)NCC(=O)N[C@@H](CO)C(=O)N[C@@H](CC(N)=O)C(=O)N[C@H](C(=O)N[C@@H](Cc1ccc(O)cc1)C(N)=O)[C@@H](C)O)C(C)C)[C@@H](C)O
In the case of B1, the “EC50 (cAMP production)” value in assay [1] came out at 0.0178 nM; in the assay with rat calcitonin receptor, 9.72 nM; in assay [2] it was 13.5 nM; in assay [3] it was 0.32 nM. Moreover, in assay [3], the “Ratio (EC50 hCTR / EC50 hAMYR3)” value came out at 42.

B2: Peptide 8 (SEQ ID NO: 8) (peptide)
peptide: K([γGlu-γGlu-C18 diacid])CNTATCATQRLANFLVHSS[Dab]NFPAILSPTNVGSNTY-NH2
modifications: disulfide 2-7; N-terminus assumed
SMILES: CC[C@H](C)[C@H](NC(=O)[C@H](C)NC(=O)[C@@H]1CCCN1C(=O)[C@H](Cc1ccccc1)NC(=O)[C@H](CC(N)=O)NC(=O)[C@H](CCN)NC(=O)[C@H](CO)NC(=O)[C@H](CO)NC(=O)[C@H](Cc1c[nH]cn1)NC(=O)[C@@H](NC(=O)[C@H](CC(C)C)NC(=O)[C@H](Cc1ccccc1)NC(=O)[C@H](CC(N)=O)NC(=O)[C@H](C)NC(=O)[C@H](CC(C)C)NC(=O)[C@H](CCCNC(=N)N)NC(=O)[C@H](CCC(N)=O)NC(=O)[C@@H](NC(=O)[C@H](C)NC(=O)[C@@H]1CSSC[C@H](NC(=O)[C@@H](N)CCCCNC(=O)CC[C@H](NC(=O)CC[C@H](NC(=O)CCCCCCCCCCCCCCCCC(=O)O)C(=O)O)C(=O)O)C(=O)N[C@@H](CC(N)=O)C(=O)N[C@@H]([C@@H](C)O)C(=O)N[C@@H](C)C(=O)N[C@@H]([C@@H](C)O)C(=O)N1)[C@@H](C)O)C(C)C)C(=O)N[C@@H](CC(C)C)C(=O)N[C@@H](CO)C(=O)N1CCC[C@H]1C(=O)N[C@H](C(=O)N[C@@H](CC(N)=O)C(=O)N[C@H](C(=O)NCC(=O)N[C@@H](CO)C(=O)N[C@@H](CC(N)=O)C(=O)N[C@H](C(=O)N[C@@H](Cc1ccc(O)cc1)C(N)=O)[C@@H](C)O)C(C)C)[C@@H](C)O
Turning to B2, the “EC50 (cAMP production)” value in assay [1] was found to be 0.0256 nM; with rat calcitonin receptor, 19.9 nM; in assay [2] it was 20.2 nM; in assay [3], 0.375 nM. Besides, the “Ratio (EC50 hCTR / EC50 hAMYR3)” value in assay [3] is 54.
For {C18 diacid-γGlu}-CNTATCATQRLAEFLRHSSNN[αMeF]GPILPPTNVGSNTY-NH2 (disulfide 1-6; numbers in words are those of the source; also: K1 deleted) [Peptide 10 (SEQ ID NO: 10)], in that order: 0.0121 nM, 2.78 nM, 2.73 nM, 0.183 nM and 15.
